Literature values in article doi:10.1101/390104.

Tests used:
Test in all cases: NMR
Details in all cases: folded inactive HdeA dimer, client-free (inferred from context); cited from earlier work
Asp47 = Asp47 (UniProt position 68, KDKPEDAVLDV)
Asp51 = Asp51 (UniProt position 72, EDAVLDVQGIA)
Glu46 = Glu46 (UniProt position 67, NKDKPEDAVLD)

## Acid stress chaperone HdeA (wild type) (Escherichia coli)
Asp47
  pKa: 4.14
Asp51
  pKa: 3.83
Glu46
  pKa: 4.07
